This note sets out measurements from PMC6351565.

For experiment [1], the target named is M2345/WT IRSp53 heterodimer (human (from the printed UniProt entry)) (UniProt Q9UQB8). Briefly: co-IP; homo- and heterodimers of wild-type and M2345 IRSp53 (FLAG and STREP tags, single plasmid with IRES) from HEK293T cells; endogenous 14-3-3 detected by blot, relative to WT-IRSp53-FLAG/WT-IRSp53-STREP.
Experiment [2] deals with WT/M2345 IRSp53 heterodimer (human (from the printed UniProt entry)) (UniProt Q9UQB8). Described as above.
WT/M2345 IRSp53 heterodimer (human, sequence (Q9UQB8 other isoform, or with tags, fused parts or gaps T340A | T360A | S366A | 452SSST455 -> AAAA, chain 1 of 2): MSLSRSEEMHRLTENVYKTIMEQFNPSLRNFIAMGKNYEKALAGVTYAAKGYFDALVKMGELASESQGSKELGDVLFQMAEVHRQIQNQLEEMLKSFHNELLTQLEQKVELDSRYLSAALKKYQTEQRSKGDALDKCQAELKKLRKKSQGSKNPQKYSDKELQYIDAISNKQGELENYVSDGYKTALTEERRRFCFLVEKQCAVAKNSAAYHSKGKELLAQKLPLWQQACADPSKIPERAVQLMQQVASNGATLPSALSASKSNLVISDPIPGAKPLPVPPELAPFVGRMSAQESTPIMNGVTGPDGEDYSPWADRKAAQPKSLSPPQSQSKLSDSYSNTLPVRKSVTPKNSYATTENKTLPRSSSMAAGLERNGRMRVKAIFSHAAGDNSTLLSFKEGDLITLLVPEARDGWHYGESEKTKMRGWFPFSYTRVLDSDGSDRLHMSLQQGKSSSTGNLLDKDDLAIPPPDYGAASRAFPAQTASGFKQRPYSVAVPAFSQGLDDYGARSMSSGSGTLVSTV
WT/M2345 IRSp53 heterodimer (human, sequence (Q9UQB8 other isoform, or with tags, fused parts or gaps, chain 2 of 2): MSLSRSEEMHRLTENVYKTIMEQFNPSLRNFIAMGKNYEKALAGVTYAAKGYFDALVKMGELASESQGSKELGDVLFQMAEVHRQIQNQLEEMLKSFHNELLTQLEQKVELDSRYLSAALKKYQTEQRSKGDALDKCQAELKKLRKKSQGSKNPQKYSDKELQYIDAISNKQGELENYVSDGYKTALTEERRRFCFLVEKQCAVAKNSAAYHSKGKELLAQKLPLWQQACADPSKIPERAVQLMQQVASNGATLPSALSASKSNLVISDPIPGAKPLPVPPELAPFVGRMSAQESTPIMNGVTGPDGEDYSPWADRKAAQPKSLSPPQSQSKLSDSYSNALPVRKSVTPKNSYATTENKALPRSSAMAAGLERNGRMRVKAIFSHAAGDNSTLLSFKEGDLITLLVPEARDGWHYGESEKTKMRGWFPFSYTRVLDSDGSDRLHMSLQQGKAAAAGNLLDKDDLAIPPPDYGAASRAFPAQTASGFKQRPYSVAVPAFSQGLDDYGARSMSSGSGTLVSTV

endogenous 14-3-3 (all isoforms included), sequence (P27348 whole entry, canonical isoform): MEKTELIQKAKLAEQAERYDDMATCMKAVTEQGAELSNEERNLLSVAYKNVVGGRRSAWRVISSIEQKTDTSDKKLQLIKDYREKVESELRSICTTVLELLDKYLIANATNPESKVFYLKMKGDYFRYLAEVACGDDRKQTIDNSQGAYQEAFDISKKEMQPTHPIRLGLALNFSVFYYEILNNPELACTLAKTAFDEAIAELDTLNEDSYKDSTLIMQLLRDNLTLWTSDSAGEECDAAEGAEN

With “endogenous 14-3-3 (all isoforms included) (from UniProt P27348 1-245) (natural protein)”, the percent of the amount that coimmunoprecipitates with WT/WT IRSp53 in experiment [1] and in experiment [2] was 50% in each case.
